Test results taken from the supplement of paper PMC12636428.

System: Saccharomyces cerevisiae
Test: transcriptional activation domain activity (GFP:mCherry ratio, weighted mean of sorted bins, harmonized to initial dataset scale) (arbitrary fluorescence ratio units); higher = stronger transcriptional activation
Conditions: beta-estradiol 1 µM; induction time 4 h
Experimental: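 53-aa protein tiles (fungal proteins plus yeast TF control tiles) fused C-terminally to a DBD-estrogen-binding domain-mCherry synthetic TF, integrated in S. cerevisiae (URA3 locus) with a GFP reporter. Cells were induced with 1 uM beta-estradiol for 4 h at 30 C, FACS-sorted into 8 bins by GFP:mCherry ratio and barcodes sequenced. Activity is the read-weighted mean bin fluorescence (GFP:mCherry), averaged over barcodes (median 12); tiles under 50 reads were discarded. New active-learning values were harmonized by linear fit onto the scale of the initial (Hummel et al.) dataset. The assay saturates at low and high signal.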

Row | Sequence | transcriptional activation domain activity
1 | MLLHLLPILCPDCIFSASITFAVLSFLLSPCPLLPFSLLPLLCFFISIILRSV | 42100
2 | MLYLCFLISFYSLCFLFSYFFNFVLDILFFYYFIIFLFSYFSIFLFSYFLICL | 54300
3 | SPKKAAAPKKPAAKKATEAKKASVKPKAAKETKEKKEAKPKAAKAAKPAAAAP | 28100
4 | MAHRFWTLQLFGNIYIIQFLGCIGFGLSLWILMHLINMIEVRNQTIQLSMLFA | 62800
5 | LSSSPSSQSASSTSTVLVVGTDDKKVKEAGDELKSKLGVKGGGKGPRWSGKFT | 23800
6 | MSDHRIIIVLAFFLIFFFNPPPLPLPTYPYQYSLLTYSLFFEPFFFSFPFFFS | 63100
7 | GIISRLVRHAHEMSYITSPLCELAAMLSINWWVKRPFIYFELFGYIRMVLLQS | 86400
8 | GSSQNTDQPHKSRKKRQREQDEDDTSTNKRSHRKSKKHKSSRKHKSSRKTAKT | 25100
9 | FPRLTDMVCELEDYLRPLAEHARAADVELVEIAVVSVYVNILNFSWKARCVFV | 43600
10 | GAGAGGKVGGGAGAGAGAGAGAGHLGGGAEGGGKIGAGAGGKVGGEIGAGGKI | 25000
11 | MEVVEGGGWKSFVYSCIRVIFLWGLDFGYFGLVACLISFCIGIFFSFFFPHYF | 27200
12 | ALRRRTTDDGRLPREDLVHSEISVAVVSSPLSFASRFSPTPAVAVLVTALPVV | 80600
13 | LQQLLLRDYFKYFIKVFQDLSTYERKSYFVFRQMAYAIISIAQGRGCIEFQCH | 43100
14 | KLGAAGGGRGSERDKRRRGEGERGGGDAVARAGEGEGRGRGRRRRKRSAACAG | 39200
15 | PPYALGYFGESDHGFCSLKVDLVYSNFMIYYLIVVPRLLVYFYCLLILFFIAM | 61600
16 | CYVLRDVFFCTVFFAFAGSIEALLQSGFCGYFPLTSTWQIVLLRALMWMTYWW | 51000
17 | HLRNDTRLIPGIKYLQMVLGRVRYCREIIAILARNGHRLPKGMLSTLVRLWLL | 34800
18 | MFQIHFLLFFFFFFSFFLLLLCFDVSILEVYFYKLLLFSFFFMMIVDLFFLFL | 60300
19 | MGGVVWCFYRVFLFPFLLSPIIPSLLLSSLHTFPLSLTFTFTFILCRMFYVCT | 53500
20 | MTLLFMWLIVRYILCYVSYYRRYAHRVGTQLPPTYPSFIPKYGTALSYLLAPA | 58700
21 | MLFFFSGLLFFLSLLSLVFLFALFFIRISTPTIRFRLWFFLLLLLLFSLFLLF | 45500
22 | VPSDSRRCRLKGVTVFTWWRNVFRQALRHQRWICLQYITSFEREWRSVLAIVR | 44800
23 | RCMVIYRSSGFFFWAIVLLPCLMFLASFSESLFQYISSPSFTVTVRLGLGILF | 63200
24 | YDTPSLQMMTIHKSFFGIVNDDTFHWKGLSKLSLDSVPGCRLLSILLLCSATL | 73200
25 | PDGSAITGSAVTKRKQSKSRNGCITCKAKRLKCDETKPSCQQCAKRSVTCGGY | 28100
26 | DRHLDHGQLVYLLHSIVTCPRFQPMVRAIIVSRELPFFVQTWPWPYLSLLART | 36100
27 | MMAEGERPLATMCSVLSVCYVCVRLVLSNLIWIVLCSSPRPLPMALLSLLAHR | 32900

Row | Sequence | transcriptional activation domain activity
28 | MDGLFFFFFPFFFLFITLPTNFILFLIVGGSSSSLFFFFGFWFLVWFGLVYLC | 27600
29 | GSKMLTEFKKKLRLDYFMLLDLRLWKDMRMCLRKLFISTLIANLSYKRILGLR | 61700
30 | SIHLPKKITICTYIGTYYAIGAAWGFVLMNYFLTGWYFGLYDKYYIDSFGIYV | 76000
31 | VPLCIAVLLLLAPHPSILHVLLNYHYLTLHSTRYFLAHLFVIYTISFLAFSSL | 47400
32 | AEEREAKKRAREEEEEEEAERAERAERAARLRRERAEEARRQAEQKHAEEARQ | 12100
33 | PSIRRCPVSFGDIDMEAELACIQYIREVLLPELVPCAYILLSYILHLLHEVSL | 77000
34 | SSQVARLHQSWQHSIRVPFALVANYDHPLPWLLQHYVPLYMPALLFRFHILTF | 50100
35 | MLCYAVLWYFVYITFFYINYDMVFLISYLVFLKQLIDRICIIIFIFSFIFFIF | 47400
36 | SREGKGGGAGRGKGGEQGGGMGEGKQGGGGGEAERGSREGKQRGEAGGRGKEE | 44600
37 | MEHQDFFGFDYGLFDDNFPITSNSLRYDDLFHFEPLDLEQDDLGWGLPDPSLS | 143000
38 | EDASAGEGEEKKKRKKKKVEASSDEEGSGSDGSKRKSQSKRTKSSKKGRSDNG | 40700
39 | DAFADGDGDATVTEGETSEKPKKARKKRAKKDTGEDDAEAKPKKKAKRKAKAA | 14500
40 | HQLGATESGLRAKNDGKLVQAEARAEGRVTFRTYLTYVRAAGTWTWMMTIFFL | 52800
41 | VVALVADPEFQRELAYVLCGQSILVRWPAKILNGLWLYCHLLQQAILPWFIFY | 52600
42 | LADNKFSYLPPTLEELMEEQDCNNGRSFKNFMFSNDTGIDGSAGTDDDYTKVL | 60000
43 | RDWRYVPEYVMRICRAHHADKPSVQMLVRKCFLEHIVNLTFTSFKALMSSKMS | 42700
44 | AVPCVVIVRNSLLIIILLPLELPLVMYVGSSNDCRGILLFYLFWFWSLRAIAV | 68600
45 | GGGGDNAAAGEKNSSSSSNSHHNSSKKSGRGGRSNSESRNEGGGRSTAGGGSA | 31800
46 | KPHHKWIIPTPFASHAFHPVDGYLQSVPYHLFIFLFPMHQYVYLGLFVAVNFW | 72400
47 | LLFTFCLYPSFLPFLLLSPLFFFLSLSPFSFFSLFSLSLPLLSPSLFSTPFIH | 39600
48 | FTPWLSSTFFLFFAVIRWGAYCLVPLLLPSFPSIPLSLYPIRFPSTHVLVLIV | 61000
49 | MILRIWGFHYLYMLVPGWYLCFRFSFFLFYFLFLFLLQFLHITLPFSCLVSFW | 46200
50 | KAAAMKKVLAKPADKTKKTSSAKNDTKKAAAKAAATKPKARTTKTAKAAAATK | 7370
51 | LYNTLFLQLSAIAREFNFPSAAGLCCYMNFSDNGSIFAPRITDDAWIILWRRY | 71800
52 | SLLLPQQPVFVSENVGSEFSSLNEFLSMLENPLLTQTSLSSSSASNVHLENGS | 98100
53 | RRARSVVEVAQTDDTGEEEDNNINSSNNINNKKKKIILELENGAETLEGDLLL | 16500
54 | LREKGGSQQQQHQQQQQQQQQQQQQQQQQSLDTLLHHYQSLLSKSDNAIAFDD | 26800

Row | Sequence | transcriptional activation domain activity
55 | MFGFIVVLLFSLPFFFTSSTTLSSFYFSFTFLVHFFLSYSLNVFLSFFVWFFF | 58100
56 | LFHVDLDKMYLMMITLCITWIHACLNVYQIHLLSLLNQWNVISSCLGLLVIVL | 41900
57 | NFMNNEITASKIDDGNNSKPLSPGWTDQTAYNAFGITTGMFNTTTMDDVYNYL | 120000
58 | MVINGLPWLVALSIPFTFLASLTHSSWHPLLLRSHSTWRLYWWLVLVLRMHMT | 41500
59 | MILARMLHIYIYKEIVDLTNVCIKCIKIISSEVRRVVLFNLDQTYETIPYIVE | 66600
60 | NGPRRNNNTPNNSPLNPGENGTSRPPRQRNPRNRPPRPRTQDNAPEPSEPASG | 19800
61 | MPNDWFIYGCIFLECYISYGVYIRVWFLLMDFVLGPISHLSIYFLWIWFILLC | 66900
62 | ASDKQETSSQPEGGKEKEAAKEEKKPEPKKEEPKQESKPAPAPKQEKKPEPKK | 32600
63 | EEERGEERREGEERVEQGEEGAGGEGDEEGRSAEHGAGGELAERRGEAGDAEV | 22900
64 | GSSGRRVRILGVCGLGRNYVMMRVIELGGILEGEVTIRRMAVSSHPSSVWIAT | 67500
65 | KNASFNDADLLSSSYWIKAYNDHLFSVSESDETSPMNSELNDTKLIVPDFKST | 69100
66 | FSMTVGFTTAFSFLFLGYPTWGTRLWSFLPFWIGFYNLFVFLSKLDPIWAILF | 48800
67 | LCRVQESILQTFGMTGLLCMQRGINFTIYCVLTCTVLHLVAITSPDPDLNRDA | 40200
68 | WEPPLYDSVGNHNHAGTMESHPHTNIHEELKEFLSGDLIEAEDNAKLMFGDDN | 55300
69 | EYAEWLLQPEQNNGTWVADVLWPAIDLDLEWIALNWNQSSWDLWWPPVWAGSF | 107000
70 | TYINYLITSNAGLTATIVHMLLWNYAEVSLGWSWITIANMKKLLRPETYKFWQ | 33300
71 | AGSGGEGADGNETRRRSSGRGRGRGRGRGGRASRGGRGGKSEGAEGFTEKAEG | 15900
72 | MSNVYNCHPALLCYLALPCPTHLCLLSSLFPSVVSTVHAFLLLFLALCPISWI | 71400
73 | KKLHLESEEDAEYIVAKAIRDGVIEAQVNHERGEMTSRETGDVYSTNEPQAQL | < 6570
74 | ERDKRDDKDRERRHHKRSRHHDSDEERREGSSSRRHRHKSRRSKSPSSKVNEE | 22800
75 | MDDTDSSAAGGARWIVVSTGGRAQSPEDEAGLRRVKGACRARQNKSKNAILIH | 47100
76 | TLTLLLRERGYELFLLVHFIFVLYVNFLSCLSVRSPLCIVYYGAWPSMIVWGI | 64600
77 | SSSSTPSAFSSATPSSLFGSGASSTAKPFGSAASPSPFGAAKSSPSLFGSGGG | 69900
78 | VLFSQRRRWINSTVHNLLELVILPELCGFCCFSMRFFVFIDLLGTILTYLVVV | 61100
79 | VTQLIRDARRLLTCVRTGFVFYLGTCMALTCLQMISFCTVLPPILTGYQILWV | 63000
